According to the supplement of paper PMC7877785:
± gives the uncertainty stated by the source.

Experiment: self-splicing fitness, log relative to wild type (ln ratio); higher = more splicing; Tetrahymena group I intron in knt gene, E. coli kanamycin selection, DiMSum; sequences stand for … in CUCUCU…GGAGGGAAAAGUUAUCAGGCAUGCACCUGGUAGCUAGUCUUUAAACCAAUAGAUUGCAUCGGUUUAAAAGGCAAGACCGUCAAAUUGCGGGAAAGGGGUCAACAGCCGUUCAGUACCAAGUCUCAGGGGAAACUUUGAGAUGGCCUUGCAAAGGGUAUGGUAAUAAGCUGACGGACAUGGUCCUAACCACGCAGCCAAGUCCUAAGUCAACAGAUCUUCUGUUGAUAUGGAUGCAGUUCACAGACUAAAUGUCGGUCGGGGAAGAUGUAUUCUUCUCAUAAGAUAUAGUCGGACCUCUCCUUAAUGGGAGCUAGCGGAUGAAGUGAUGCAACACUGGAGCCGCUGGGAACUAAUUUGUAUGCGAAAGUAUAUUGAUUAGUUUUGGAGUACUCGUGGUCG
Procedure, shortened: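 Pooled colonies went to amplicon sequencing on an Illumina HiSeq 2500 after six replicate transformations. The plates were LB agar with 100 μg/mL carbenicillin, 50 μM IPTG and 0.2% rhamnose, with or without 25 μg/mL kanamycin, incubated overnight at 37°C or 30°C. The E. coli BL21(DE3) library had all eight P1ex-region intron nucleotides randomised, the intron placed in the knt kanamycin-resistance gene on pET-22b(+). DiMSum fitness is the error-weighted combination of replicate fold changes, kanamycin against none, normalised to wild type.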

Row | Sequence | self-splicing fitness (ln) (30 °C) | self-splicing fitness (ln) (37 °C)
1 | UCCCAGCAAUAUUACGAUCG | -3.52 ± 0.3 | -2.79 ± 0.16
2 | UACAAGCAAUAUUACGGUCG | -0.0495 ± 0.068 | -0.0985 ± 0.1
3 | UGCAAGCAAUAUUACGAUGG | -1.25 ± 0.1 | -0.29 ± 0.12
4 | CGCCAGCAAUAUUACGCUCG | -2.21 ± 0.13 | -0.347 ± 0.14
5 | CAAAAGCAAUAUUACGGCUC | -1.56 ± 0.12 | 0.0316 ± 0.14
6 | CUAGAGCAAUAUUACGUUCU | -3.79 ± 0.21 | -2.21 ± 0.22
7 | AUGUAGCAAUAUUACGUCUA | -1.25 ± 0.14 | -0.893 ± 0.15
8 | UUCAAGCAAUAUUACGGAUG | -2.34 ± 0.14 | -1.7 ± 0.14
9 | GAUGAGCAAUAUUACGGCUC | -0.914 ± 0.26 | -1.12 ± 0.32
10 | AACUAGCAAUAUUACGAGAC | -1.96 ± 0.44 | 
11 | CGGAAGCAAUAUUACGUGUG | -1.38 ± 0.051 | -0.291 ± 0.067
12 | CUCGAGCAAUAUUACGCAUG | -3.27 ± 0.2 | -3.58 ± 0.42
13 | AACAAGCAAUAUUACGCAAG | -1.88 ± 0.084 | -0.493 ± 0.086
14 | GAAAAGCAAUAUUACGAGCA | -0.889 ± 0.063 | -0.307 ± 0.076
15 | UCCCAGCAAUAUUACGGUAU | -1.24 ± 0.059 | -0.809 ± 0.08
16 | UCUCAGCAAUAUUACGCAAA | -3.55 ± 0.4 | -1.59 ± 0.21
17 | CACAAGCAAUAUUACGGACU | -2.54 ± 0.14 | -2.11 ± 0.14
18 | GAGCAGCAAUAUUACGGUAG | -4.29 ± 0.2 | -3.24 ± 0.24
19 | CCGCAGCAAUAUUACGGCAA | -2.74 ± 0.24 | -2.53 ± 0.22
20 | UGCGAGCAAUAUUACGGUUU | -3.14 ± 0.3 | -2.62 ± 0.34
21 | AUGUAGCAAUAUUACGCGGG | -4.31 ± 0.33 | -2.37 ± 0.2

Row | Sequence | self-splicing fitness (ln) (30 °C) | self-splicing fitness (ln) (37 °C)
22 | GGCUAGCAAUAUUACGGCUU | -1.31 ± 0.17 | 0.197 ± 0.21
23 | GGAAAGCAAUAUUACGCCGU | -1.5 ± 0.26 | 0.351 ± 0.28
24 | AUACAGCAAUAUUACGCUAA | -1.96 ± 0.12 | -1.01 ± 0.12
25 | CGUAAGCAAUAUUACGUUAU | -4.56 ± 0.26 | -1.45 ± 0.19
26 | UCUGAGCAAUAUUACGAGGC | -2.78 ± 0.35 | -2.39 ± 0.26
27 | GCAUAGCAAUAUUACGGGCU | -2.22 ± 0.23 | -0.579 ± 0.17
28 | GCCCAGCAAUAUUACGAGGG | -4 ± 0.18 | -2.74 ± 0.21
29 | UAUCAGCAAUAUUACGCUAG | -0.545 ± 0.1 | -0.149 ± 0.12
30 | UAGUAGCAAUAUUACGCUGU | -3.6 ± 0.36 | -1.91 ± 0.32
31 | ACCAAGCAAUAUUACGCACC | -0.532 ± 0.078 | -0.199 ± 0.11
32 | CACGAGCAAUAUUACGCCAG | -3.4 ± 0.27 | -2.95 ± 0.28
33 | GGCGAGCAAUAUUACGGUUA | -1.07 ± 0.11 | 0.0284 ± 0.088
34 | GGCAAGCAAUAUUACGGACG | -0.442 ± 0.089 | -0.416 ± 0.086
35 | CAUAAGCAAUAUUACGGCGG | 0.324 ± 0.087 | -0.0169 ± 0.12
36 | CCACAGCAAUAUUACGGGCG | -0.605 ± 0.065 | 0.193 ± 0.087
37 | UCGAAGCAAUAUUACGAUUG | -2.47 ± 0.27 | -1.73 ± 0.23
38 | GCGCAGCAAUAUUACGCAUU | -1.4 ± 0.077 | -0.154 ± 0.1
39 | ACAAAGCAAUAUUACGUACU | -0.16 ± 0.049 | -0.0261 ± 0.072
40 | CCGGAGCAAUAUUACGAGGU | -3.56 ± 0.46 | -2.6 ± 0.31
41 | UGAGAGCAAUAUUACGGCGG | -3.73 ± 0.35 | -1.9 ± 0.3
42 | GGAGAGCAAUAUUACGAACU | -1.36 ± 0.31 | -1.92 ± 0.37

Row | Sequence | self-splicing fitness (ln) (30 °C) | self-splicing fitness (ln) (37 °C)
43 | GAGCAGCAAUAUUACGAGAC | -2.97 ± 0.3 | -0.985 ± 0.2
44 | UUUCAGCAAUAUUACGCGGA | -2.2 ± 0.14 | -1.54 ± 0.15
45 | AGAUAGCAAUAUUACGAGAU | -3.02 ± 0.25 | -1.69 ± 0.27
46 | UACUAGCAAUAUUACGUAGU | -3.62 ± 0.22 | -1.65 ± 0.25
47 | AACUAGCAAUAUUACGCACA | -0.559 ± 0.061 | 0.145 ± 0.077
48 | GCCUAGCAAUAUUACGUUCC | -1.1 ± 0.17 | 0.341 ± 0.19
49 | AUUUAGCAAUAUUACGCCUA | -1.24 ± 0.2 | 0.0334 ± 0.19
50 | UCAUAGCAAUAUUACGAAAG |  | -1.84 ± 0.47
51 | CCUUAGCAAUAUUACGAUAA | -3.53 ± 0.25 | -2.88 ± 0.27
52 | ACUGAGCAAUAUUACGACGC | 0.0713 ± 0.15 | 0.648 ± 0.2
53 | UCACAGCAAUAUUACGAGCU | -3.32 ± 0.18 | -2.37 ± 0.26
54 | UCAUAGCAAUAUUACGCUUA |  | -1.21 ± 0.26
55 | CGUGAGCAAUAUUACGCGUC | -3.12 ± 0.31 | 
56 | CGUUAGCAAUAUUACGGUCG | -1.03 ± 0.11 | 0.369 ± 0.12
57 | CGGCAGCAAUAUUACGUCAA | -1.53 ± 0.11 | -1.43 ± 0.13
58 | CGAUAGCAAUAUUACGAUGU | -0.22 ± 0.14 | -0.614 ± 0.16
59 | GAUUAGCAAUAUUACGAGGG | -2.81 ± 0.29 | -2.88 ± 0.29
60 | GGCUAGCAAUAUUACGUCUG | -4.06 ± 0.31 | -2.13 ± 0.17
61 | CCUGAGCAAUAUUACGGCUU | -3.73 ± 0.29 | -3.02 ± 0.27
